Experimental data as given in patent publication CN112225809A.

Target: hPD1/Fc of human IgG1 (fluorescently labelled) (human) (UniProt Q15116)
Assay: flow cytometry blocking assay: 100 ng hPD-1/hFc-FITC and antibody on SPC-A1-PDL1 cells

Sequence of UniProt Q15116 (Q15116 25-167 limits assumed): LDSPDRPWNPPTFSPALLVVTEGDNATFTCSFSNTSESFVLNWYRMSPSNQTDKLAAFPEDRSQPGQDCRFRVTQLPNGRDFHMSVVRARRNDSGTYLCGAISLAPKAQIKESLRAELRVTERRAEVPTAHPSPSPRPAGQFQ

amount of antibody that blocks the binding of PD-1 to PD-L1: 1.6 µg
B1: hUM1-30 (antibody, human IgG4 S228P, kappa, V domains shown)
VH: EVQLVESGGGLVQPGGSLRLSCAASGFTFSTYGMSWVRQAPGKGLEWVSTISGGGRYTYYPDSVKGRFTISRDNSKNTLYLQMNSLRAEDTAVYYCARQKGTTWFAHWGQGTLVTVSS
VL: DIQMTQSPSSLSASVGDRVTITCRASESVDDNGISFMNWFQQKPGKAPKLLIYAASNQGSGVPSRFSGSGSGTDFTLTISSLQPEDFATYYCQQSKEVPWTFGQGTKVEIKR
